# According to ChEMBL document CHEMBL1123179, “4-Amino-2-(substituted methyl)-2-butenoic acids: substrates and potent inhibitors of gamma-aminobutyric acid aminotransferase” (J Med Chem, 1986):
# Assays:
# Details in all cases: Sus scrofa
# NC/C=C(\CO)C(=O)O [1] = test: Compound was tested for the inhibitory effect against Gamma-amino-N-butyrate transaminase from pig brain, activity expressed as Vmax
# NC/C=C(\CF)C(=O)O = test: (§1) Compound was tested for the inhibitory effect against Gamma-amino-N-butyrate transaminase from pig brain, activity expressed as Km
# NC/C=C(\CO)C(=O)O [2] = test: as §1
# 4-aminobutyrate aminotransferase, mitochondrial (Sus scrofa), P80147, sequence (P80147 whole entry): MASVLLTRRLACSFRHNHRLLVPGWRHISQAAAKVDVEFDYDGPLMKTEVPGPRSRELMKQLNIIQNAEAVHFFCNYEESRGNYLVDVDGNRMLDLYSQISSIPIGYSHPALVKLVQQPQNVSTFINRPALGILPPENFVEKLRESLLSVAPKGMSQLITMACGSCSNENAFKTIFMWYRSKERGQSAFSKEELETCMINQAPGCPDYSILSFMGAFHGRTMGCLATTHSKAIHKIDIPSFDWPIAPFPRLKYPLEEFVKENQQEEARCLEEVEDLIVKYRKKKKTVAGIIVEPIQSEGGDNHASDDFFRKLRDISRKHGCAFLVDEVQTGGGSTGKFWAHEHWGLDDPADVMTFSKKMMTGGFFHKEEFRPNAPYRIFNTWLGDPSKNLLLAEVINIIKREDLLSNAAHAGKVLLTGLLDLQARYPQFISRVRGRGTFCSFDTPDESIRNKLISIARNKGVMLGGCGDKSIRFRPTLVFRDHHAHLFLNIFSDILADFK
substance,measurement,setting,value
"4-aminobutyrate aminotransferase, mitochondrial (Sus scrofa), P80147",Vmax,NC/C=C(\CO)C(=O)O [1],0.012 µM/min/mg
same,Km,NC/C=C(\CF)C(=O)O,140 µM
same,Km,NC/C=C(\CO)C(=O)O [2],10 µM
